Assay results from paper PMC8631079.

Key:
[1] = molecular target: GH10 (1) from PUL15 of Prevotella copri DSM18205 (extracellular endo-1,4-β-xylanase) (Prevotella copri DSM 18205); experiment: SEC; HiPrep 16/60 Sephacryl S-300 HR column, 0.5 mL/min, sodium phosphate 50 mM, NaCl 150 mM, pH 7.0; calibrated with molecular weight standards 20-700 kDa; native mass compared with the theoretical mass
[2] = molecular target: GH43_1 from PUL15 of Prevotella copri DSM18205 (intracellular β-xylosidase / exo-β-xylanase) (Prevotella copri DSM 18205); experiment: as above

| stoichiometry N [1] | stoichiometry N [2] | Substance |
| --- | --- | --- |
| 2 | – | GH10 (1) from PUL15 of Prevotella copri DSM18205 (extracellular endo-1,4-β-xylanase) (enzyme) |
| – | 2 | GH43_1 from PUL15 of Prevotella copri DSM18205 (intracellular β-xylosidase / exo-β-xylanase) (enzyme) |
